B1: Oxysterol-binding protein-related protein 3A (Arabidopsis thaliana (Mouse-ear cress)), Q9LZM1 (parent)
chain: MASNDPKNGGGFFASLASSITNFGSAMSKSVNGLMGYEGLEVINPEGSTDDAEEEAGRGRWKQEERDGYWKMMQKYIGSDVTSMVTLPVIIFEPMTMLQKMAELMEYSYLLDMADKTEDPYMRMVYASSWAISVYYAYQRTWKPFNPILGETYEMTNHNGINFIAEQVCHHPPMSAGHAENEHFAYDCTSKLKTKFLGNSIDVYPVGRTRVTLKRDGVVLDLVPPLTKVHNLIFGRTWVDSPGEMVMTNLTTGDKVVLYFQPCGWFGSGRYEVDGYVYNSAEEPKMLMTGKWNESLSYQPCDAEGEPLPGTELKEVWKVAEAPKNDKYQYTHFAHKINSFDTAPKKLLSSDSRLRPDRYALEMGDMSKSGFEKSSLEDRQRAEKKSREEKGQKFAPKWFDETEEVTPTPWGDLEVYQFNGKYSVHRATAENSEDTTDVKLTQFNPWQFQDLSA
partner: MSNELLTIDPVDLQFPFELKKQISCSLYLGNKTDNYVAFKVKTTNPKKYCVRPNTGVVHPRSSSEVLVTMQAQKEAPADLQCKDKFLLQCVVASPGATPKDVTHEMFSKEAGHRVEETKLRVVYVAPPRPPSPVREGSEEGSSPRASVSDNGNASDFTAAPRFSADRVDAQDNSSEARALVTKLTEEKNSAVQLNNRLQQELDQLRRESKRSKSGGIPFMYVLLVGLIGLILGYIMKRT

Variants of: B1
Conditions: with vap12_arath PVA12, Q9SHC8

effect of a mutation on the interaction | Variant
disrupting interaction | W398A;F399A;D400G;E401G;E403G

Source: IntAct's records for PubMed 19207211
